Laboratory results reported in patent US20040202659A1 (ASAT AG APPLIED SCIENCE AND TECHNOLOGY, published 2004).
Each block holds one binder with its values, some of them ahead of it.

What was measured:
PDG-B [1] = biological target: T1, PDG-B; assay: flow cytometry, biotinylated PDG-B on platelets with AI-B phab
T1 construct: human anti-GPIIb/IIIa Fab, as phab or as biotinylated recombinant Fab; lambda light chain; also called Group B phab clones; Group B antibody phab clones
Method: This was determined by means of flow-cytometric analysis. […] 10,000 events were counted in a FACScan appliance and the mean value of the fluorescence (±SD) was recorded.

PDG-A = biological target: T2, PDG-A; assay: specificity assay
T2 construct: lambda light chain; also called Group A phab clones; Group A autoantibody phab clones
T2 sequence (VH, as listed by the source, chain 1 of 2): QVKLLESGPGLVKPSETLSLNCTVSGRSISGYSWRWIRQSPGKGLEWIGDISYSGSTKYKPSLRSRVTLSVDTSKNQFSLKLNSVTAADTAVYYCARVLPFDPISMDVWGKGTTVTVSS
T2 sequence (VL, as listed by the source, chain 2 of 2): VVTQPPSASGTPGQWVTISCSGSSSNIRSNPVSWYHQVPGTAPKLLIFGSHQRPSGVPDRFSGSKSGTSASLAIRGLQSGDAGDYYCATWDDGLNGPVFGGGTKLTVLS

PDG-B [2] = biological target: T1, PDG-B; assay: specificity assay

inhibition of the binding of PDG-B to platelets (PDG-B [1]): > 60%
binding result (PDG-A): no binding
B1: AI-B18 (Fab, V domains shown)
VH: QVKLLESGAEVKKPGSSVMVSCKASGGTFSSHTISWVRQAPGQGLEWMGGITPIFGTVNYAQKFQGRVTITADEPTSTAYMELRSLTSDDSGIYYCAREDGTTVPSQPLEFWGQGTRVTVSS
notes: phab; also called A1-B18

binding result (PDG-A): no binding
B2: AI-B40 (Fab, V domains shown)
VH: B1 VH
notes: phab; also called A1-B40

binding result (PDG-A): no binding
B3: AI-B34 (Fab, V domains shown)
VH: B1 VH
notes: phab; also called A1-B34

inhibition of the binding of PDG-B to platelets (PDG-B [1]): > 60%
binding result (PDG-A): no binding
B4: AI-B38 (Fab, V domains shown)
VH: QVKLLESGAEVKKPGASVKVSCKVSGYTLTELSMHWVRQAPGKGLEWMGGFDPEDGETIYAQKFQGRVTMTEDTSTDTAYMELSSLRSEDTAVYYCETGLRSYNYGRNLDYWGQGTLVTVSS
notes: phab; also called A1-B38

inhibition of the binding of PDG-B to platelets (PDG-B [1]): > 60%
binding result (PDG-A): no binding
B5: AI-B24 (Fab, V domains shown)
VH: QVKLLESGGGLVQPGGSLRLSCSASGFTFNKYAIHWVRQAPGKGLEYVSAISSNGGNTYYADSVKGRFTISRDNSKNTVYLQMSSLRAEDTAVYYCVRGSGSYLGYYFDYWGQGTLVTVSS
VL: VVTQPPSVSVAPRQTATITCGGYKIGSKSVHWYQQKPGQAPVLVVYEDSYRPSEIPERFSGSNSGNMATLTITGVEAGDEADYYCQVWDNTNDQTIFGGGTKLTVLR
notes: phab; also called A1-B24

binding result (PDG-B [2]): binds
binding result (PDG-A): no binding
B6: AI-B14 (Fab, V domains shown)
VH: QVKLLESGGGVVQPGRSLRLSCAASGFTFSDYGMHWVRQAPGKGLEWVAAISYDGSNKYYADSVKGRFSISRDNSNNTLYLQMSTLRAEDTAVYFCARDSETAIAAAGRFDIWGQGTMVTVSS
notes: phab; also called A1-B14; AI-14

binding result (PDG-B [2]): binds
binding result (PDG-A): no binding
B7: AI-B17 (Fab, V domains shown)
VH: B6 VH
notes: phab; also called A1-B17
